Read-outs that look alike come from different tables or passages of the source.
B1: Dam1C/DASH heterodecamer (recombinant) (complex, yeast (budding yeast))
chain 1: MSEDKAKLGTTRSATEYRLSIGSAPTSRRSSMGESSSLMKFADQEGLTSSVGEYNENTIQQLLLPKIRELSDSIITLDSNFTRLNFIHESLADLNESLGSLLYGIMSNSWCVEFSQAPHDIQDDLIAIKQLKSLEDEKNNLVMELSNMERGIKRKKDEQGENDLAKASQNKQFNQPLFPSSQVRKYRSYDNRDKRKPSKIGNNLQVENEEDYEDDTSSEASFVLNPTNIGMSKSSQGHVTKTTRLNNNTNSKLRRKSILHTIRNSIASGADLPIENDNVVNLGDLHPNNRISLGSGAARVVNGPVTKNRNSMFSGRAERKPTESRHSVAKKTEKKINTRPPFR
chain 2: MMASTSNDEEKLISTTDKYFIEQRNIVLQEINETMNSILNGLNGLNISLESSIAVGREFQSVSDLWKTLYDGLESLSDEAPIDEQPTLSQSKTK
chain 3: MDSIDEQIAIKRKELQSLQKITSLTDGLKIQLTELNEQIKEMGMNADSVAQLMNNWDSIINNISQASLGLLQYAEGDYEIGPWKDSKKKESEQSNETGLEAQENDKNDEDNDEDEDLVPLPETMVRIRVDGNE
chain 4: MEHNLSPLQQEVLDKYKQLSLDLKALDETIKELNYSQHRQQHSQQETVSPDEILQEMRDIEVKIGLVGTLLKGSVYSLILQRKQEQESLGSNSK
chain 5: MENPHEQVQANILSRIIGNVKRLNESVAILNQELVTINNRNKNLEIMGAICDNYHSSVQFNLEATNNKKPPL
chain 6: MSEQSQLDDSTIDKLIPQIFNEMRSNLNNTTNKFPKSTGGGASDNISANSNSIRSFNSITTQSLLKESESLDKITAMIKNVTAALKNNLPVYVNQVHEVCKSTNSILDSWINIHSQAGYIHKLMSDQTYLKLINDRLHNENVNTNDEDGSTLHNVIALKKKEILDLRQKLENRKGEKDAAPAKPPNQGLNPRYGVQSGRRPVPSAGISNNGRVRKTHVPASKRPSGIPRVTNRWTKPTASSSRKMFR
chain 7: MDSASKEETLEKLDQEITVNLQKIDSNLSFCFHKITQDIIPHVATYSEICERIMDSTEWLGTMFQETGLVNLQANAAAPVGNAPVKSLVSNNVGIFPTSAEEASRQSQTDNGPNEADSAVHVNRDVHSMFNNDSIDDFHTANITSTGQILKLPDSSDEDTGSEAVPSREQTDLTGEGHGGADDEQDESTIQRQSRKRKISLLLQQQYGSSSSMVPSPIVPNKMRKQLAHEEHINNDGDNDDENSNNIESSPLKQGHHHPKGQADDNNEGPDEEESTKEVPKPGTIIHFSTNR
chain 8: MTDALEQSVLALEGTVSVLKDSVESLKCANEPSTNLASTMLQTKRVFRLVPEYDVERSKLDLIEEVEPLVRTLGDKLRKSMGRMQRELDTLQQTYELNDLRLKKNISMDDDDALNSPDMGQEYEGRDADDVVMMASSTNEELEELKKLKEKKKQLENKLEILKQK
chain 9: MGESLDRCIDDINRAVDSMSTLYFKPPGIFHNAILQGASNKASIRKDITRLIKDCNHDEAYLLFKVNPEKQSVSRRDGKEGVFDYVIKRDTDMKRNRRLGRPGEKPIIHVPKEVYLNKDRLDLNNKRRRTATTSGGGLNGFIFDTDLIGSSVISNSSSGTFKALSAVFKDDPQIQRLLYALENGSVLMEEESNNQRRKTIFVEDFPTDLILKVMAEVTDLWPLTEFKQDYDQLYHNYEQLSSKLRFIKKEVLLQDDRLKTMSQYHPSSSHDVAKIIRKEKDEIRRLEMEIANLQE
chain 10: MNANKQRQYNQLAHELRELQTNLQETTKQLDIMSKQCNENLVGQLGKVHGSWLIGSYIYYMEQMLGKTQ
B2: Dam1C/DASH outer-kinetochore complex in yeast cells (complex)
chain 1: MSEDKAKLGTTRSATEYRLSIGSAPTSRRSSMGESSSLMKFADQEGLTSSVGEYNENTIQQLLLPKIRELSDSIITLDSNFTRLNFIHESLADLNESLGSLLYGIMSNSWCVEFSQAPHDIQDDLIAIKQLKSLEDEKNNLVMELSNMERGIKRKKDEQGENDLAKASQNKQFNQPLFPSSQVRKYRSYDNRDKRKPSKIGNNLQVENEEDYEDDTSSEASFVLNPTNIGMSKSSQGHVTKTTRLNNNTNSKLRRKSILHTIRNSIASGADLPIENDNVVNLGDLHPNNRISLGSGAARVVNGPVTKNRNSMFSGRAERKPTESRHSVAKKTEKKINTRPPFR
chain 2: MMASTSNDEEKLISTTDKYFIEQRNIVLQEINETMNSILNGLNGLNISLESSIAVGREFQSVSDLWKTLYDGLESLSDEAPIDEQPTLSQSKTK
chain 3: MDSIDEQIAIKRKELQSLQKITSLTDGLKIQLTELNEQIKEMGMNADSVAQLMNNWDSIINNISQASLGLLQYAEGDYEIGPWKDSKKKESEQSNETGLEAQENDKNDEDNDEDEDLVPLPETMVRIRVDGNE
chain 4: MEHNLSPLQQEVLDKYKQLSLDLKALDETIKELNYSQHRQQHSQQETVSPDEILQEMRDIEVKIGLVGTLLKGSVYSLILQRKQEQESLGSNSK
chain 5: MENPHEQVQANILSRIIGNVKRLNESVAILNQELVTINNRNKNLEIMGAICDNYHSSVQFNLEATNNKKPPL
chain 6: MSEQSQLDDSTIDKLIPQIFNEMRSNLNNTTNKFPKSTGGGASDNISANSNSIRSFNSITTQSLLKESESLDKITAMIKNVTAALKNNLPVYVNQVHEVCKSTNSILDSWINIHSQAGYIHKLMSDQTYLKLINDRLHNENVNTNDEDGSTLHNVIALKKKEILDLRQKLENRKGEKDAAPAKPPNQGLNPRYGVQSGRRPVPSAGISNNGRVRKTHVPASKRPSGIPRVTNRWTKPTASSSRKMFR
chain 7: MDSASKEETLEKLDQEITVNLQKIDSNLSFCFHKITQDIIPHVATYSEICERIMDSTEWLGTMFQETGLVNLQANAAAPVGNAPVKSLVSNNVGIFPTSAEEASRQSQTDNGPNEADSAVHVNRDVHSMFNNDSIDDFHTANITSTGQILKLPDSSDEDTGSEAVPSREQTDLTGEGHGGADDEQDESTIQRQSRKRKISLLLQQQYGSSSSMVPSPIVPNKMRKQLAHEEHINNDGDNDDENSNNIESSPLKQGHHHPKGQADDNNEGPDEEESTKEVPKPGTIIHFSTNR
chain 8: MTDALEQSVLALEGTVSVLKDSVESLKCANEPSTNLASTMLQTKRVFRLVPEYDVERSKLDLIEEVEPLVRTLGDKLRKSMGRMQRELDTLQQTYELNDLRLKKNISMDDDDALNSPDMGQEYEGRDADDVVMMASSTNEELEELKKLKEKKKQLENKLEILKQK
chain 9: MGESLDRCIDDINRAVDSMSTLYFKPPGIFHNAILQGASNKASIRKDITRLIKDCNHDEAYLLFKVNPEKQSVSRRDGKEGVFDYVIKRDTDMKRNRRLGRPGEKPIIHVPKEVYLNKDRLDLNNKRRRTATTSGGGLNGFIFDTDLIGSSVISNSSSGTFKALSAVFKDDPQIQRLLYALENGSVLMEEESNNQRRKTIFVEDFPTDLILKVMAEVTDLWPLTEFKQDYDQLYHNYEQLSSKLRFIKKEVLLQDDRLKTMSQYHPSSSHDVAKIIRKEKDEIRRLEMEIANLQE
chain 10: MNANKQRQYNQLAHELRELQTNLQETTKQLDIMSKQCNENLVGQLGKVHGSWLIGSYIYYMEQMLGKTQ

How the values were obtained:
cryo-EM structure [1] = target: the molecule itself; assay: cryo-EM structure
cryo-EM structure [2] = target: the molecule itself; assay: cryo-EM structure; remark: listed apart in the source

| Protein | stoichiometry N (cryo-EM structure [1]) | stoichiometry N (cryo-EM structure [2]) |
| --- | --- | --- |
| B1 | 17 | – |
| B2 | – | 17 |

— article doi:10.1101/299487 (bioRxiv, 2018)
